Source: patent US20220009987A9, “HUMAN RESISTIN COMPOSITIONS AND METHODS OF TREATING TLR4-MEDIATED DISEASE AND INFECTION” (THE REGENTS OF THE UNIVERSITY OF CALIFORNIA, priority 2017, published 2022)

Biological target: T1, TLR4 (Mus musculus, UniProt Q9QUK6)
T1 construct: from tissue; host or cells: dissociated lung cells (monocytes, alveolar macrophages, neutrophils) of day 7 Nb-infected mice
T1 sequence (Q9QUK6 26-835): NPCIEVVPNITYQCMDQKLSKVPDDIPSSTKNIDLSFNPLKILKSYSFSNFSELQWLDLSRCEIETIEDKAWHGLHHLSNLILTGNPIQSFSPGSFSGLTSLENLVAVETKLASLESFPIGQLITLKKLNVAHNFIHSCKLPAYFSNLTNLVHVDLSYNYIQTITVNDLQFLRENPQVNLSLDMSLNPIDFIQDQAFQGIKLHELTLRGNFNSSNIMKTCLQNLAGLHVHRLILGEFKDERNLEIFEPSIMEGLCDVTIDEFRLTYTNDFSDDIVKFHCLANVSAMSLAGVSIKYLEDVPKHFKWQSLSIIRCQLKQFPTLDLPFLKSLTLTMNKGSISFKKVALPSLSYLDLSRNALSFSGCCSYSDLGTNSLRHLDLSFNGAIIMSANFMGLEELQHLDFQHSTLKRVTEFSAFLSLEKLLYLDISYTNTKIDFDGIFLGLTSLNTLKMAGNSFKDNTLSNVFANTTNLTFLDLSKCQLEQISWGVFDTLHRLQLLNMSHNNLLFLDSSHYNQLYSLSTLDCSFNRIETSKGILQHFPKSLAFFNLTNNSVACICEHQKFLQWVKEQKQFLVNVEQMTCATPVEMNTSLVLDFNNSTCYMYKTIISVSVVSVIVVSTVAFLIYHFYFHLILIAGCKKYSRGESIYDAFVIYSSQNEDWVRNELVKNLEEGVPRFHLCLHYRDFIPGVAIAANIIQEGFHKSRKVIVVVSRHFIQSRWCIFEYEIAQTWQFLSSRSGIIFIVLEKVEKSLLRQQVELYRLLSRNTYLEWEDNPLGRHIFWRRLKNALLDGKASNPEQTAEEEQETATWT
Experiment: hRetn cellular binding assay on dissociated lung cells from Nb-infected Tlr4+/+ or Tlr4−/− mice
Format: cell-based
Conditions: Ly6C+CD11b+ lung cells, Nb-infected mice
Protocol: Binding Assay and Flow Cytometry. Single cell suspension of lung tissue was prepared and hRetn binding was measured as previously described in Jang et al., 2015, supra. Briefly, dissociated lung cells were incubated for 1 hour at 4° C. with 0.5 μg recombinant hResistin (Peprotech) or PBS, followed by 2× wash in FACS buffer, incubation with Fc block (5 μg/mL αCD16/32 and 10 μg/mL purified rat IgG1, 5 min at 4° C.). Cells were stained with biotinylated α-hRetn (Peprotech, 30 min at 4° C.) followed by detection with BV605-conjugated streptavidin (BD) and surface marker antibodies. To collect peritoneal exudate cells (PECs), the peritoneal cavity was washed and PECs recovered in 5 mL ice cold PBS. Surface marker antibodies were: F4/80 (clone A3-1), SiglecF (clone E50-2440), CD4 (clone RM4-5), Ly6C (HK1.4), CD11b (clone M1/70), CD11c (clone N418), Ly6G (clone 1A8), MHCII (clone M5/114.15.2) and CD3e (clone 145-2C11), CD115 (clone AFS98), purchased from Affymetrix, BD Biosciences or Biolegend. Cell populations were determined as follows: peritoneal macrophage (F4/80+CD11b+), neutrophils (Ly6G+CD11b+), eosinophils (SiglecF+CD11c−) and monocyte (Ly6C+CD11b+), alveolar macrophages (F4/80+CD11c+). For flow cytometric analysis, all samples were run on the BD LSRII and analyzed on FlowJo (v10).

B1: hRetn: human resistin protein (hRetn) having an amino acid sequence of SEQ ID NO: 1; recombinant, E. coli-derived or 293T cell-derived (protein, listed as Homo sapiens)
chain: MKALCLLLLPVLGLLVSSKTLCSMEEAINERIQEVAGSLIFRAISSIGLECQSVTSRGDLATCPRGFAVTGCTCGSACGSWDVRAETTCHCQCAGMDWTGARCCRVQP
With B1 the “hRetn binding to Tlr4+/+ monocytes” value was “able to bind hRetn”.
